# Experimental data: patent US20200377588A1, “Highly Versatile Method of Presenting Cyclic Peptide on Protein Structure” (The University of Tokyo, priority 2017, published 2020)
# T1: Plexin B1-PA (Homo sapiens, UniProt O43157)
# T1 construct: made in house; host or cells: Expi293F cells (secreted, culture supernatant)
# T1 sequence (O43157 20-1490 limits assumed): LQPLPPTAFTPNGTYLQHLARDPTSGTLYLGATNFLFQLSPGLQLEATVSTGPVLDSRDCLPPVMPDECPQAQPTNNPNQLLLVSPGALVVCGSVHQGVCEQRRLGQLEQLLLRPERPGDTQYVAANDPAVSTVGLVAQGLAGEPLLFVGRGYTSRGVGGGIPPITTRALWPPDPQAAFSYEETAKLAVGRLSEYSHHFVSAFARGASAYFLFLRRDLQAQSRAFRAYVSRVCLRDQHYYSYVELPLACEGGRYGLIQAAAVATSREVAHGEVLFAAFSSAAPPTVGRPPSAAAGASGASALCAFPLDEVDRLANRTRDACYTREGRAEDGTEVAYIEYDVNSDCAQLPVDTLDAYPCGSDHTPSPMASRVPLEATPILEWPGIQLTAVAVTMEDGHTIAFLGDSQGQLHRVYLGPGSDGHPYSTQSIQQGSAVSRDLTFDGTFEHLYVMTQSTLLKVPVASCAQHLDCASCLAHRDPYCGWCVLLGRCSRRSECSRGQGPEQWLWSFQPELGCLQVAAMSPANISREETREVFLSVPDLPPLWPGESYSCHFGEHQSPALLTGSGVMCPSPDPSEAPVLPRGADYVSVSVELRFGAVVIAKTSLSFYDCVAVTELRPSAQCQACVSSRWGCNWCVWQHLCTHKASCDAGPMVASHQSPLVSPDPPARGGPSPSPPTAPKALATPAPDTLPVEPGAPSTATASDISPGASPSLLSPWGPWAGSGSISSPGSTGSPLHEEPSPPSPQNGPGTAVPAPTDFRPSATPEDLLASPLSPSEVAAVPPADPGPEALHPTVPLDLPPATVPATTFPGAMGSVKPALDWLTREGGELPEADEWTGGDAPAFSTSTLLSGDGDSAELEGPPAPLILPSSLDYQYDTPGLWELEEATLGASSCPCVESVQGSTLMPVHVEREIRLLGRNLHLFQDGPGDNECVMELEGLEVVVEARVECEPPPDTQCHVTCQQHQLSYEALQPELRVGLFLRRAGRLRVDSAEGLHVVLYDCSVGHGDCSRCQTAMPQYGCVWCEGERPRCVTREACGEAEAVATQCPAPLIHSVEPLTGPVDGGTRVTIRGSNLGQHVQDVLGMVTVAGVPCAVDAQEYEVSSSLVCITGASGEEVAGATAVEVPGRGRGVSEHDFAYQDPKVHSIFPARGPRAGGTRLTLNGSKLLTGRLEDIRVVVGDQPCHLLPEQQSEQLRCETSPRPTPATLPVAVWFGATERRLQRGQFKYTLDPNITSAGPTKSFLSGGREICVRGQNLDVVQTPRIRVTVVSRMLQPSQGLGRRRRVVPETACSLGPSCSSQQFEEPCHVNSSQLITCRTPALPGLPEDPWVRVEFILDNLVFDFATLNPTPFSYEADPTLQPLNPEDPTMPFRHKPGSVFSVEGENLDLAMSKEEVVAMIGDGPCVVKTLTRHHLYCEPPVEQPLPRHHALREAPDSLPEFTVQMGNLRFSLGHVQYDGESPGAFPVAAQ
# T2: Plexin B1-Fc (Homo sapiens, UniProt O43157)
# T2 construct: Protein A Sepharose that had captured a soluble receptor fragment Plexin B1-Fc therein
# T2 sequence (O43157 20-1490 limits assumed): T1 sequence (O43157 20-1490 limits assumed)
# B1: PLAP: full-length human placental alkaline phosphatase with Myc and Hisx6 tags, no cyclic peptide fused; control (protein, UniProt P05187 1-535, looked up)
# chain: MLGPCMLLLLLLLGLRLQLSLGIIPVEEENPDFWNREAAEALGAAKKLQPAQTAAKNLIIFLGDGMGVSTVTAARILKGQKKDKLGPEIPLAMDRFPYVALSKTYNVDKHVPDSGATATAYLCGVKGNFQTIGLSAAARFNQCNTTRGNEVISVMNRAKKAGKSVGVVTTTRVQHASPAGTYAHTVNRNWYSDADVPASARQEGCQDIATQLISNMDIDVILGGGRKYMFRMGTPDPEYPDDYSQGGTRLDGKNLVQEWLAKRQGARYVWNRTELMQASLDPSVTHLMGLFEPGDMKYEIHRDSTLDPSLMEMTEAALRLLSRNPRGFFLFVEGGRIDHGHHESRAYRALTETIMFDDAIERAGQLTSEEDTLSLVTADHSHVFSFGGYPLRGSSIFGLAPGKARDRKAYTVLLYGNGPGYVLKDGARPDVTESESGSPEYRQQSAVPLDEETHAGEDVAVFARGPQAHLVHGVQEQTFIAHVMAFAACLEPYTACDLAPPAGTTDAAHPGRSVVPALLPLLAGTLLLLETATAP
# modifications: full-length Myc and His6 tags
# notes: full-length human placental alkaline phosphatase with Myc and Hisx6 tags, no cyclic peptide fused; control
# Legend:
# [1] = biological target: T1, Plexin B1-PA; assay: pull-down type binding experiment, Plexin B1-PA captured on NZ-1 Sepharose, SDS-PAGE
# Experimental: (§1) A pull-down type binding experiment was performed to study whether or not Fn10-Fc having various cyclic peptides fused therein retained its binding ability, which the cyclic peptides had before fusion, to binding molecules. In accordance with the method described in Protein Exp. Purification, 2014, 95, 240-247, respective constructs encoding fusion proteins having a PA tag (product of Wako Pure Chemical Industries) added to the C terminus of an extracellular region of four binding molecules (each, single-pass membrane receptor) were created and the resulting constructs were each incorporated in an expression vector pcDNA3.1 (product of Thermo Fisher Scientific). After transient expression in Expi293F cells by the above-described method while using the vector, respective culture supernatants containing Plexin B1-PA, Met-PA, EGFR-PA, and TrkB-PA, which were soluble receptor fragments, were prepared.
# (§2) To 0.5 mL of the culture supernatant containing the PA-tag added receptor extracellular region, 30 μL of Sepharose (product of Wako Pure Chemical Industries) on which NZ-1, an anti-PA tag antibody, was immobilized and the resulting mixture was mixed by rotation for 2 hours to capture the binding molecule on Sepharose. […]
# [2] = biological target: T3, Met-PA (Homo sapiens, UniProt P08581); assay: pull-down type binding experiment, Met-PA captured on NZ-1 Sepharose, SDS-PAGE; details: Example 1, Fn10-Fc mutants, culture supernatant, FIG. 5
# T3 construct: made in house; host or cells: Expi293F cells (secreted, culture supernatant)
# T3 sequence (P08581 25-932 limits assumed): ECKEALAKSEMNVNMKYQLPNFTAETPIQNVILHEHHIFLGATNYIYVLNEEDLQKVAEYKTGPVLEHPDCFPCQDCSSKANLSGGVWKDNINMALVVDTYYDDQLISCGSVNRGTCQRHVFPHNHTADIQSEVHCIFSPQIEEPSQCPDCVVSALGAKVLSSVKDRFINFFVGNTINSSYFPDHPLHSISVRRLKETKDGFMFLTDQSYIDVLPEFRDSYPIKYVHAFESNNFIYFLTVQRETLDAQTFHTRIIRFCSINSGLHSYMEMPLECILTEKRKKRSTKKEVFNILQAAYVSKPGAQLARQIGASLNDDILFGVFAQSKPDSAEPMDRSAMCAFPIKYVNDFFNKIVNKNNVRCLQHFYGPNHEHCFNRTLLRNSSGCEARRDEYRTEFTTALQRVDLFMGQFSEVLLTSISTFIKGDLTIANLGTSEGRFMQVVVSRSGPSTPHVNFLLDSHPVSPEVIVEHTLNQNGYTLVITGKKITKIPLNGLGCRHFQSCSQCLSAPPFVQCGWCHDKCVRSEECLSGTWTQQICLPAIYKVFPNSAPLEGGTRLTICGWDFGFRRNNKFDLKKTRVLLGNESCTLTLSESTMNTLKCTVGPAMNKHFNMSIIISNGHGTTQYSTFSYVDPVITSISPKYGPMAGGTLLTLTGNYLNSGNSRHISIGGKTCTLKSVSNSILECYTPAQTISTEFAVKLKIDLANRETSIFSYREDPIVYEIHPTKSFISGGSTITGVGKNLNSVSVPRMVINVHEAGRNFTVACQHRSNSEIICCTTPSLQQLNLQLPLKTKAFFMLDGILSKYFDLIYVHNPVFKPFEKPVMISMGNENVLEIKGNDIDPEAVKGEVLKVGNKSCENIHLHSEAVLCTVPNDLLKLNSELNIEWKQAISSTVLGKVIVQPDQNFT
# [3] = biological target: T4, EGFR-PA (Homo sapiens, UniProt P00533); assay: pull-down type binding experiment, EGFR-PA captured on NZ-1 Sepharose, SDS-PAGE; details: Example 1, Fn10-Fc mutants, culture supernatant, FIG. 5
# T4 construct: made in house; host or cells: Expi293F cells (secreted, culture supernatant)
# Experimental: as §1, §2
# [4] = biological target: T5, TrkB-PA (Homo sapiens, UniProt Q16620); assay: pull-down type binding experiment, TrkB-PA captured on NZ-1 Sepharose, SDS-PAGE; details: Example 1, Fn10-Fc mutants, culture supernatant, FIG. 5
# T5 construct: made in house; host or cells: Expi293F cells (secreted, culture supernatant)
# Experimental: as §1, §2
# [5] = biological target: T2, Plexin B1-Fc; assay: pulldown, Plexin B1-Fc captured on protein A-Sepharose, SDS-PAGE; format: binding; details: Example 7, PLAP mutants, FIG. 27
# Text: It is to be noted, however, that for the mP6-9 peptide fusion protein, not Plexin B1-PA but Plexin B1-Fc protein was used as a binding molecule and as pulldown beads, not NZ-1-Sepharose but protein A-Sepharose was used.
# [6] = biological target: T6, Met-Fc (Homo sapiens, UniProt P08581); assay: pulldown, Met-Fc captured on Protein A Sepharose, SDS-PAGE; format: binding; details: Example 7, PLAP mutants, FIG. 27
# T6 construct: captured a soluble receptor fragment Plexin B1-Fc or Met-Fc therein
# T6 sequence (P08581 25-932 limits assumed): as above
# Text: Binding of the resulting cyclic peptide fusion protein (PLAP mutant) to Protein A Sepharose that had captured a soluble receptor fragment Plexin B1-Fc or Met-Fc therein by the method described above I Example 1 was studied by the pulldown method.
molecule,measurement,setting,value
"hGH: full-length human growth hormone with Hisx8 tag and TEV site, no cyclic peptide fused; control",binding to Plexin B1-PA (pulldown),"[1]; Example 5, hGH mutants, FIG. 20B",does not bind to Plexin B1-PA
"Fn10-Fc: tenth Type III repeat domain of human fibronectin (residues 1418 to 1509) fused to human IgG1 Fc, no peptide inserted; control",binding to Plexin B1-PA (pulldown),"[1]; Example 1, Fn10-Fc mutants, culture supernatant, FIG. 5",did not show a binding property
same,binding to Met-PA (pulldown),[2],did not show a binding property
same,binding to EGFR-PA (pulldown),[3],did not show a binding property
same,binding to TrkB-PA (pulldown),[4],did not show a binding property
B1,binding to Plexin B1-Fc (pulldown),[5],does not bind
same,binding to Met-Fc (pulldown),[6],does not bind
